Test results: PMC11743793, “Structural insights into human topoisomerase 3β DNA and RNA catalysis and nucleic acid gate dynamics” (Nature Communications, 2025)
One block for each binder: values may come before it.

How the values were obtained:
[1] = molecular target: T1, human full-length TOP3B(Y336F) (human, UniProt O95985 1-862, Y336F); assay: cryo-EM structure; full-length TOP3B(Y336F)-TDRD3(1-190 aa) with a DNA mismatch bubble or a short R-loop substrate; cryo-EM volumes; conditions: both partners purified
T1 construct: DNA topoisomerase 3-beta (TOP3B), human, full length; residues 1-717 resolved in the apo map; not shown: His8, N-terminal, cleaved; MBP, N-terminal, cleaved
T1 sequence (looked up): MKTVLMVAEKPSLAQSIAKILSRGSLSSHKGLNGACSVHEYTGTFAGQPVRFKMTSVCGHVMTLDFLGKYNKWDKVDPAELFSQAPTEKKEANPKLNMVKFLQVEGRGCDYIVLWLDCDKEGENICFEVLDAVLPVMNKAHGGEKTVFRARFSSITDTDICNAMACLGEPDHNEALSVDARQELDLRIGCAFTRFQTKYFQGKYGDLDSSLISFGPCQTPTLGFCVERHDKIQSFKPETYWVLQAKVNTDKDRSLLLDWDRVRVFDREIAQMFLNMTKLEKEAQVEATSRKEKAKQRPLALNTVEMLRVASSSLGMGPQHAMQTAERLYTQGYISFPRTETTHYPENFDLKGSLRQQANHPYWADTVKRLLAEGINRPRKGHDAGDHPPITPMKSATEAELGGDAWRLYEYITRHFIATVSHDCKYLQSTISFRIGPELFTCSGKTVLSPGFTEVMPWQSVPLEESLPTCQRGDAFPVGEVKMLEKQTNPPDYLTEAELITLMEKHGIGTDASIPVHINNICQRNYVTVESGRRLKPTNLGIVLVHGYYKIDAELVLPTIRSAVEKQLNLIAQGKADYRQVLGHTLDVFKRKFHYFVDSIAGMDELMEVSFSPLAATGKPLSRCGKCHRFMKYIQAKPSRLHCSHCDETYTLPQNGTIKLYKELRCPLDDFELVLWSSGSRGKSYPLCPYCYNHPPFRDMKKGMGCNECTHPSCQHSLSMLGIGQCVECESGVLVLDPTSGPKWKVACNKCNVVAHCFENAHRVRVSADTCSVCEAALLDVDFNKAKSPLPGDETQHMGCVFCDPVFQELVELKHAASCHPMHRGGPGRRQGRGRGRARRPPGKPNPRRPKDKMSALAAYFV

[2] = molecular target: T2, human TOP3Bcore-Y336F (1-612 aa) (human, UniProt O95985 1-612, Y336F); assay: cryo-EM structure; cTOP3B heterodimer (wild type, Y336F or K10M; 3 mg/ml) mixed with equimolar gapped 43-mer DNA or RNA; 25 mM Bis-Tris pH 6.8, 0.1 M KCl, 0.5 mM MnCl2 (5 mM for the rejoining complexes), 0.1% octyl β-D-glucopyranoside, 4 mM DTT, 2% glycerol; RT; conditions: both partners purified
T2 construct: DNA topoisomerase 3-beta (TOP3B), human, core, residues 1-612, catalytic tyrosine changed to phenylalanine; also called TOP3B chain of cTOP3B-Y336F; not shown: His8, N-terminal, cleaved; MBP, N-terminal, cleaved
T2 sequence (looked up): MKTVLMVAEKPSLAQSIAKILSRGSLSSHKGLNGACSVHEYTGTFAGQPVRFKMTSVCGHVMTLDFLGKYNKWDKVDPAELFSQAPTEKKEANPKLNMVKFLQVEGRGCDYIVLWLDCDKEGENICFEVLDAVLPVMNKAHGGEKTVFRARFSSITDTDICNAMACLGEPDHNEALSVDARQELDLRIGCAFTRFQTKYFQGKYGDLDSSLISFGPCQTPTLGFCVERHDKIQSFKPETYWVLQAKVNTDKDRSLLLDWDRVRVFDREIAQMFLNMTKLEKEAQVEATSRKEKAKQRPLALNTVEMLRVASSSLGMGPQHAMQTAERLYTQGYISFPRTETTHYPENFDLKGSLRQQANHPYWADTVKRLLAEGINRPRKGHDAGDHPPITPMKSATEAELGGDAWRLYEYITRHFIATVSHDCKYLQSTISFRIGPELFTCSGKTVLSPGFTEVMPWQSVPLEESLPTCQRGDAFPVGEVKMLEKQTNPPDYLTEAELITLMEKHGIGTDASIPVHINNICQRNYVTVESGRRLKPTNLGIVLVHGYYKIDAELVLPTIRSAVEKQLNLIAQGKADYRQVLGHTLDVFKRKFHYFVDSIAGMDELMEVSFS

[3] = molecular target: T3, human TOP3Bcore-K10M (1-612 aa) (human, UniProt O95985 1-612, K10M); assay: as above; conditions: both partners purified
T3 construct: DNA topoisomerase 3-beta (TOP3B), human, core, residues 1-612, rejoining-deficient mutant; In the rejoining complexes Y336 carries the tyrosyl-phosphodiester linkage to the cleaved DNA/RNA (PTR336); also called TOP3B chain of cTOP3B-K10M; not shown: His8, N-terminal, cleaved; MBP, N-terminal, cleaved
T3 sequence (looked up): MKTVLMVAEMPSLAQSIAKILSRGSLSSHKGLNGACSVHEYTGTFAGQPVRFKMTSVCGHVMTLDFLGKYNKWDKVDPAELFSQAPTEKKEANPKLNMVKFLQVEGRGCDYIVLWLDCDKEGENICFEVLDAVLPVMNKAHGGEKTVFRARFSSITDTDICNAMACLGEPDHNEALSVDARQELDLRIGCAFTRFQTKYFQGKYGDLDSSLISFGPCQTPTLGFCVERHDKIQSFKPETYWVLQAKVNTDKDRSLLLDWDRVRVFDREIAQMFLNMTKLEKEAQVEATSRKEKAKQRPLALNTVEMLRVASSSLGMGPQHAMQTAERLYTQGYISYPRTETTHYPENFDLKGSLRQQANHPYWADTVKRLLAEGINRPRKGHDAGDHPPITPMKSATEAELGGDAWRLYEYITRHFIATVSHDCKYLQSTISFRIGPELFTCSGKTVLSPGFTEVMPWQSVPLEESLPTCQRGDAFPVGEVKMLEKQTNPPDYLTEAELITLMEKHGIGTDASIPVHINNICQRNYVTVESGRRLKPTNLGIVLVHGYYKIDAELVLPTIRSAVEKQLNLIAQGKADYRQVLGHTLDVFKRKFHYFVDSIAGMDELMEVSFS

[4] = molecular target: the molecule itself; assay: cryo-EM structure; cTOP3B mixed with a DNA bubble (11-nt strand opposite 13 unmatched nucleotides) at about 1:1; species with two cTOP3B on one DNA bubble, ~4.3 Å map from 63,000 particles

binding result [1]: binds
B1: human TDRD3(1-190 aa) (domain or fragment, UniProt Q9H7E2 1-190, looked up)
chain: MLRLQMTDGHISCTAVEFSYMSKISLNTPPGTKVKLSGIVDIKNGFLLLNDSNTTVLGGEVEHLIEKWELQRSLSKHNRSNIGTEGGPPPFVPFGQKCVSHVQVDSRELDRRKTLQVTMPVKPTNDNDEFEKQRTAAIAEVAKSKETKTFGGGGGGARSNLNMNAAGNRNREVLQKEKSTKSEGKHEGVY
notes: Tudor domain-containing protein 3 (TDRD3), human, residues 1-190; not shown: His8, N-terminal, cleaved; MBP, N-terminal, cleaved

binding result [2]: binds | binding result [3]: binds
B2: N-terminal fragment of human TDRD3 (1-171 aa) containing its DUF domain and OB-fold (domain or fragment, UniProt Q9H7E2 1-171, looked up)
chain: MLRLQMTDGHISCTAVEFSYMSKISLNTPPGTKVKLSGIVDIKNGFLLLNDSNTTVLGGEVEHLIEKWELQRSLSKHNRSNIGTEGGPPPFVPFGQKCVSHVQVDSRELDRRKTLQVTMPVKPTNDNDEFEKQRTAAIAEVAKSKETKTFGGGGGGARSNLNMNAAGNRNR
notes: Tudor domain-containing protein 3 (TDRD3), human, residues 1-171 (DUF domain and OB-fold); also called TDRD3 chain of cTOP3B; OB (in TOP3Bcore-OB); not shown: His8, N-terminal, cleaved; MBP, N-terminal, cleaved

B3: human TOP3Bcore (1-612 aa), wild type (domain or fragment, UniProt O95985 1-612, looked up)
chain: MKTVLMVAEKPSLAQSIAKILSRGSLSSHKGLNGACSVHEYTGTFAGQPVRFKMTSVCGHVMTLDFLGKYNKWDKVDPAELFSQAPTEKKEANPKLNMVKFLQVEGRGCDYIVLWLDCDKEGENICFEVLDAVLPVMNKAHGGEKTVFRARFSSITDTDICNAMACLGEPDHNEALSVDARQELDLRIGCAFTRFQTKYFQGKYGDLDSSLISFGPCQTPTLGFCVERHDKIQSFKPETYWVLQAKVNTDKDRSLLLDWDRVRVFDREIAQMFLNMTKLEKEAQVEATSRKEKAKQRPLALNTVEMLRVASSSLGMGPQHAMQTAERLYTQGYISYPRTETTHYPENFDLKGSLRQQANHPYWADTVKRLLAEGINRPRKGHDAGDHPPITPMKSATEAELGGDAWRLYEYITRHFIATVSHDCKYLQSTISFRIGPELFTCSGKTVLSPGFTEVMPWQSVPLEESLPTCQRGDAFPVGEVKMLEKQTNPPDYLTEAELITLMEKHGIGTDASIPVHINNICQRNYVTVESGRRLKPTNLGIVLVHGYYKIDAELVLPTIRSAVEKQLNLIAQGKADYRQVLGHTLDVFKRKFHYFVDSIAGMDELMEVSFS
notes: DNA topoisomerase 3-beta (TOP3B), human, core, residues 1-612; In the DNA post-cleavage complex the catalytic Y336 is covalently linked to the DNA scissile phosphate (PTR336); Tags removed by PreScission Protease before SEC; also called hsTOP3Bcore(1-612AA); TOP3B chain of cTOP3B; not shown: His8, N-terminal, cleaved; MBP, N-terminal, cleaved
binding result [4]: binds
